Experimental data: US20040018971A1 (published 2004)

How the values were obtained:
HLA-A*0101 [1] = target: T1, HLA-A*0101 (human); experiment: competition with a 125I-labelled probe peptide for purified HLA-A*0101, gel filtration; ratio against the A*0101 standard peptide 944.02 [..] (25 nM)
T1 construct: Purified HLA molecule, 5 to 500 nM in the assay; also called HLA-A1

[2] = target: T2, HLA-A*0301 (purified HLA class I molecule) (human); experiment: inhibition of 125I probe peptide binding to purified HLA; ratio to standard peptide; minus sign not explained
T2 construct: also called A3

[3] = target: HLA-A*1101 (purified HLA class I molecule) (human); experiment: as above
HLA-A*6801 = HLA-A*6801 (human); experiment: inhibition of 125I-labelled standard peptide binding to purified HLA, gel filtration
HLA-A*1101 = HLA-A*1101 (human); experiment: as above
HLA-A*3301 = HLA-A*3301 (human); experiment: as above
HLA-A*3101 = HLA-A*3101 (human); experiment: as above
HLA-A*0301 = HLA-A*0301 (human); experiment: as above
HLA-A*0201 = target: T3, HLA-A*0201 (human); experiment: competitive inhibition of 125I-labeled probe peptide binding to purified HLA-A*0201
T3 construct: also called HLA-A2.1; A2.1

HLA-A*0101 [4] = target: T4, HLA-A*0101 (human); experiment: competition with 125I-labelled probe peptide for purified HLA-A*0101, gel filtration
T4 construct: also called HLA-A1

[5] = target: HLA-DR1 (DRB1*0101), purified HLA class II molecule (human); experiment: competition with 125I-labelled probe peptide, purified HLA-DR
[6] = target: T5, HLA-A*6801 (purified HLA class I molecule) (human); experiment: competition vs 125I standard peptide, purified HLA
T5 construct: Purified MHC molecule

[7] = target: T6, HLA-A*3101 (purified HLA class I molecule) (human); experiment: competition vs 125I standard peptide, purified HLA
T6 construct: Purified MHC molecule

[8] = target: HLA-A*0301 (purified HLA class I molecule) (human); experiment: competition vs 125I standard peptide, purified HLA
[9] = target: T7, HLA-A*3301 (purified HLA class I molecule) (human); experiment: competition vs 125I standard peptide, purified HLA
T7 construct: Purified MHC molecule

[10] = target: T8, HLA-A*1101 (purified HLA class I molecule) (human); experiment: competition vs 125I standard peptide, purified HLA
T8 construct: Purified MHC molecule

[11] = target: T2, HLA-A*0301 (purified HLA class I …); experiment: inhibition of 125I probe peptide binding to purified HLA; ratio to standard peptide
HLA-A*0202 = HLA-A*0202 (human); experiment: competition with 125I probe peptide for purified HLA
HLA-A*0206 = HLA-A*0206 (human); experiment: as above
HLA-A*0203 = HLA-A*0203 (human); experiment: as above

Question: Which “relative binding ratio (IC50 of standard peptide / IC50 of test peptide)” value (HLA-A*0101 [1]) does the source give for THDPSPLQRY (also called Her2/neu.1103) [HER2/neu peptide, position 1103, 10 amino acids] here?
Answer: 0.0015 ratio

Question: CAGGCARCK (also called Her2/neu.220 (9-mer)) [HER2/neu peptide, position 220, 9 amino acids] was tested. Which relative binding ratio [2] did it give?
Answer: -0.0002 ratio (IC50 standard / IC50 test)

Question: What about the relative binding ratio [3] of the same binder?
Answer: -0.0002 ratio (IC50 standard / IC50 test)

Question: What does the source list for QVCTGTDMK (Synthetic A3 supermotif peptide) [HER2/neu peptide, position 24, 9 amino acids]?
Answer: relative binding ratio (HLA-A*6801): 0.011 ratio (IC50 of standard peptide / IC50 of test peptide); relative binding ratio (HLA-A*1101): 0.052 ratio (IC50 of standard peptide / IC50 of test peptide); relative binding ratio (HLA-A*3301): 0.0006 ratio (IC50 of standard peptide / IC50 of test peptide); relative binding ratio (HLA-A*3101): 0.0002 ratio (IC50 of standard peptide / IC50 of test peptide); relative binding ratio (HLA-A*0301): 0.0007 ratio (IC50 of standard peptide / IC50 of test peptide)

Question: How did the IC50 (HLA-A*0201) turn out when YMIMVKCWM [Her2/neu.952] was run?
Answer: ≤ 500 nM

Question: With VFETLEEITGY (also called Her2/neu.399) [HER2/neu peptide, position 399, 11 amino acids] as the binder, how does the “relative binding ratio (IC50 of standard peptide / IC50 of test peptide)” value (HLA-A*0101 [1]) read?
Answer: 0.0045 ratio

Question: For DMGDLVDAEEY [HER2/neu peptide, position 1013, 11 amino acids], which relative binding ratio (HLA-A*0101 [4]) is on record?
Answer: 0.0027 ratio (IC50 of standard peptide / IC50 of test peptide)

Question: For QLFEDNYALA [Her2/neu.106], which IC50 (HLA-A*0201) is on record?
Answer: ≤ 500 nM

Question: How did the relative binding ratio (HLA-A*0101 [4]) turn out when ETHLDMLRHLY (also called Her2/neu.40) [HER2/neu peptide, position 40, 11 amino acids] was run?
Answer: 0.28 ratio (IC50 of standard peptide / IC50 of test peptide)

Question: With GLACHQLCA [Her2/neu.508] as the binder, how does the IC50 (HLA-A*0201) read?
Answer: ≤ 500 nM

Question: Which relative binding ratio [5] does the source give for QPDVRPQPPSPREGP (also called Her2/neu.1142) [HER2/neu DR supermotif exemplary 15-mer QPDVRPQPPSPREGP (position 1142)] here?
Answer: 0.0007 ratio (IC50 standard / IC50 test)

Question: How did the relative binding ratio [6] turn out when ILIKRRQQK [HER2/neu peptide, position 673, 9 amino acids] was run?
Answer: 0.0001 ratio (IC50 standard/IC50 test)

Question: And the relative binding ratio [7]?
Answer: 0.076 ratio (IC50 standard/IC50 test)

Question: And the relative binding ratio [8]?
Answer: 0.38 ratio (IC50 standard/IC50 test)

Question: And the relative binding ratio [9]?
Answer: 0.0064 ratio (IC50 standard/IC50 test)

Question: And the relative binding ratio [10]?
Answer: 0.0097 ratio (IC50 standard/IC50 test)

Question: What does the source list for RILKETELRK (Synthetic A3 supermotif peptide) [HER2/neu peptide, position 713, 10 amino acids]?
Answer: relative binding ratio (HLA-A*6801): 0.0002 ratio (IC50 of standard peptide / IC50 of test peptide); relative binding ratio (HLA-A*1101): 0.11 ratio (IC50 of standard peptide / IC50 of test peptide); relative binding ratio (HLA-A*3301): 0.0013 ratio (IC50 of standard peptide / IC50 of test peptide); relative binding ratio (HLA-A*3101): 0.0055 ratio (IC50 of standard peptide / IC50 of test peptide); relative binding ratio (HLA-A*0301): 0.057 ratio (IC50 of standard peptide / IC50 of test peptide)

Question: How did the relative binding ratio [3] turn out when ESMPNPEGR [HER2/neu peptide, position 280, 9 amino acids] was run?
Answer: -0.0002 ratio (IC50 standard / IC50 test)

Question: What about the relative binding ratio [11] of the same binder?
Answer: 0.0003 ratio (IC50 standard / IC50 test)

Question: How did the IC50 (HLA-A*0201) turn out when ALCRWGLLLA [Her2/neu.5] was run?
Answer: ≤ 500 nM

Question: Which results are given for ILKETELRK [HER2/neu peptide, position 714, 9 amino acids]?
Answer: relative binding ratio [6]: 0.0001 ratio (IC50 standard/IC50 test); relative binding ratio [7]: 0.0009 ratio (IC50 standard/IC50 test); relative binding ratio [8]: 0.019 ratio (IC50 standard/IC50 test); relative binding ratio [9]: 0.001 ratio (IC50 standard/IC50 test); relative binding ratio [10]: 0.0023 ratio (IC50 standard/IC50 test)

B1: Her2/neu.166 (10 amino acids) (peptide)
peptide: TILWKDIFHK
notes: Synthetic A3 supermotif peptide; also called HER2/neu peptide, position 166, 10 amino acids
Question: What does the source list for B1?
Answer: relative binding ratio (HLA-A*6801): 0.04 ratio (IC50 of standard peptide / IC50 of test peptide); relative binding ratio (HLA-A*1101): 3.6 ratio (IC50 of standard peptide / IC50 of test peptide); relative binding ratio (HLA-A*3301): 0.042 ratio (IC50 of standard peptide / IC50 of test peptide); relative binding ratio (HLA-A*3101): 0.037 ratio (IC50 of standard peptide / IC50 of test peptide); relative binding ratio (HLA-A*0301): 0.043 ratio (IC50 of standard peptide / IC50 of test peptide)

Question: How did the relative binding ratio (HLA-A*6801) turn out when NVKIPVAIK (Synthetic A3 supermotif peptide) [HER2/neu peptide, position 745, 9 amino acids] was run?
Answer: 0.12 ratio (IC50 of standard peptide / IC50 of test peptide)

Question: What about the relative binding ratio (HLA-A*1101) of the same binder?
Answer: 0.0007 ratio (IC50 of standard peptide / IC50 of test peptide)

Question: What about the relative binding ratio (HLA-A*3301) of the same binder?
Answer: 0.082 ratio (IC50 of standard peptide / IC50 of test peptide)

Question: And the relative binding ratio (HLA-A*3101)?
Answer: 0.0015 ratio (IC50 of standard peptide / IC50 of test peptide)

Question: And the relative binding ratio (HLA-A*0301)?
Answer: 0.0058 ratio (IC50 of standard peptide / IC50 of test peptide)

Question: How did the relative binding ratio [6] turn out when ILWKDIFHK (also called Her2/neu.167) [HER2/neu peptide, position 167, 9 amino acids] was run?
Answer: 0.0046 ratio (IC50 standard/IC50 test)

Question: What about the relative binding ratio [7] of the same binder?
Answer: 0.22 ratio (IC50 standard/IC50 test)

Question: And the relative binding ratio [8]?
Answer: 0.28 ratio (IC50 standard/IC50 test)

Question: And the relative binding ratio [9]?
Answer: 0.03 ratio (IC50 standard/IC50 test)

Question: What about the relative binding ratio [10] of the same binder?
Answer: 0.31 ratio (IC50 standard/IC50 test)

Question: Which relative binding ratio (HLA-A*0101 [4]) does the source give for ETLEEITGYLY (also called Her2/neu.401) [HER2/neu peptide, position 401, 11 amino acids] here?
Answer: 0.44 ratio (IC50 of standard peptide / IC50 of test peptide)

Question: With QLMPYGCLL [Her2/neu.799 QLMPYGCLL] as the binder, how does the IC50 (HLA-A*0202) read?
Answer: 977 nM

Question: And the IC50 (HLA-A*0206)?
Answer: 712 nM

Question: And the IC50 (HLA-A*0203)?
Answer: 114 nM
